The source of these data is US10590192B2, “Midkine antibody” (Cellmid Limited, priority 2014, dated 2020).

Common to all, as to conditions: comparison in words
Experiment [1] has as its target T1, recombinant human MK (huMK) (Homo sapiens, UniProt P21741).
T1 sequence (P21741 21-143): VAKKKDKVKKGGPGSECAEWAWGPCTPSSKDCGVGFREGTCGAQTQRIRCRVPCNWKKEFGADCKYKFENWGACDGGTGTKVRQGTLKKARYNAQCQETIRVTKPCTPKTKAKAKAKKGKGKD
As to the kind of experiment: ELISA binding of humanised anti-MK antibodies to huMK. The procedure:
(§1) The binding specificity and affinity of the humanised anti-MK antibodies to recombinant human MK (huMK) and murine MK (muMK) was assessed by ELISA. ELISA plates (Nunc Immuno MaxiSorp 96 well flat-bottom were coated with 100 uL of 2 ug/mL of either huMK or muMK in 2% BSA/PBS (overnight at room temperature). After washing, blocking (1 h at 37° C.), and washing again, the humanised anti-MK and chimeric antibodies described in Example 1 were analysed for binding to huMK or muMK at concentrations ranging between 3 μg/ml and 0.00004 μg/ml in 2% BSA/PBS (1 h at 37° C.). After washing, the binding of antibody was detected with goat anti-mouse IgG (Fab specific)-HRP conjugate (Sigma, Cat. No. A9917) and SigmaFast OPD substrate (Sigma, Cat. No. P9187). The reaction was stopped with 3 M HCl, absorbance read at 490 nm on a Dynex Technologies MRX TC II plate reader and the binding curves plotted. Binding affinity data for the humanised anti-MK antibodies to huMK and muMK are presented in Table 6 and Table 7 respectively, and in FIG. 3.
(§2) KD values for hIP14-H5L8, hIP14-H6L3 and hIP14-H6L8 was then compared with the KD values obtained for the corresponding murine IP14 precursor antibody and the chimeric antibody using the methods described in Example 2. […] Based on this finding, these candidate antibodies were produced to 100 mg scale to enable further testing in functional assays to determine biological function.
(An ELISA detects its analyte on a solid surface through an enzyme-linked reagent.)

A further experiment addresses T2, human midkine protein (Homo sapiens, UniProt P21741).
T2 construct: human MK cDNAs comprising the MK coding region flanked by EcoRI restriction sites; made in house; host or cells: Pichia pastoris GS115 (clone T3L-50-4P), secreted into culture supernatant
T2 sequence (P21741 21-143): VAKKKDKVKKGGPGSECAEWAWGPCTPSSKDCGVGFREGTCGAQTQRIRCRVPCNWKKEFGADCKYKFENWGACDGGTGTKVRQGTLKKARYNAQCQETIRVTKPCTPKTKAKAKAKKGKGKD
Briefly: UMR106 cell migration inhibition assay (modified Boyden chamber). It is filed as cell-based, rat. The procedure:
Cell migration assays were performed for each of the preferred candidate humanised IP14 antibodies and the murine IP14 parent antibody to determine the ability of these antibodies to inhibit migration of UMR106 cells to midkine.
The UMR-106 rat osteosarcoma cell line was originally obtained from the American Type Culture Collection, PO Box 1549, Manassas, Va., USA as a frozen stock (catalog no. CRL-1661; batch no. 58494148).
The cells were maintained in: DMEM+Glutamax (DMEM, catalog no. 10569-010 500 mL, lot. no. 778325, Invitrogen/Gibco) supplemented with the following items: Penicillin (10,000 U/mL stock concentration)—Streptomycin (10,000 μg/mL stock concentration) (catalog no. 15140-122 100 mL, lot no. 730849, Invitrogen/Gibco) at a rate of 1 mL/200 mL of DMEM 10% fetal bovine serum (FBS, catalog no. 100099-141, lot no. 6955347Y, Invitrogen/Gibco). The DEM+Glutamax media containing 50 U/mL penicillin, 50 μg/mL streptomycin and 10% FBS is identified as Complete media in this report. The 10% FBS was replaced by 0.3% (w/v) bovine serum albumin (BSA) for the cell migration assays. The BSA was supplied by Sigma-Aldrich, catalog no. A-3192, lot no. 31K1264 and was formulated as a 15% (w/v) stock solution in D-PBS which was sterilized by passage through a 0.22 micron filter and stored at −20° C. prior to use. The cell cultures were maintained in T75 tissue culture-treated flasks in a humidified incubator at approximately 37° C. and 5% carbon dioxide. Cells were sub-cultured twice weekly at a sub-culture ratio ranging from approximately 1:8 to 1:20. Cells were dissociated from the flask by rinsing once with Dulbecco's phosphate buffered saline (DPBS, catalog no. 14190, lot no. 783715, Invitrogen/Gibco) and then incubated with 0.25% Trypsin-EDTA solution (Invitrogen/Gibco) at 37° C. for 2-5 minutes. The cells were then removed by addition of approximately 10 mL of Complete media. The experiments were completed using UMR-106 cells at ˜50 to 75% confluency on the day prior to assay. These cultures were washed once with DMEM and cultured overnight in DMEM containing 0.5% FBS. […]

Another experiment has as its target T3, murine MK (muMK) (Mus musculus, UniProt P12025).
T3 sequence (P12025 23-140): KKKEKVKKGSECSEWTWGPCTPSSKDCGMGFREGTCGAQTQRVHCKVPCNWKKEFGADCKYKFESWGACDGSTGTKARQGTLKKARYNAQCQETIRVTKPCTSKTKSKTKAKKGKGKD
Briefly: ELISA binding of humanised anti-MK antibodies to muMK. As to the method:
as §1, §2

Entries after “also recorded” stand apart in the source; their conditions may differ.

B1: IP14-H5L8: humanised IP14 antibody: VH SEQ ID NO: 6, VL SEQ ID NO: 17 (antibody, V domains shown)
VH: QVQLVQSGGGLVQPGGSLRLSCAASGQSFSSYWMNWVRQAPGQGLEWIGMIHPSDSETILNQKFKDKATLTVDISKNTAYLQMNSLRAEDTAVYYCSSWSAKRGDFWGQGTLVTVSS
VL: DIVLTQSPATLSLSPGERATLSCRASESISNNLHWYQQKPHQAPRLLIYYASQSISGVPARFSGSGSGTDFTLTISSVEPEDFAVYYCQQSNSWPLTFGQGTKVEIKR
modifications: Variable region heavy chain humanised variant 5 (VH5); Variable region light chain humanised variant 8 (VL8)
As for B1, the “binding affinity for huMK compared with murine IP14 precursor antibody” value in experiment [1] is reported as “better binding affinity”. Further, in the experiment with human midkine protein, the “inhibition of UMR-106 cell migration compared with murine IP14 precursor antibody” value is “more effective; also recorded: greater efficacy”. In addition, the “binding affinity for muMK compared with murine IP14 precursor antibody and chimeric antibody” value in the experiment with murine MK (muMK) was “better binding affinity”.

B2: IP14-H6L3: humanised IP14 antibody: VH SEQ ID NO: 7, VL SEQ ID NO: 12 (antibody, V domains shown)
VH: QVQLVQSGGGLVKPGHSLRLSCAASGQSFSSYWMNWVRQAPGKGLEWIGMIHPSDSETILNQKFKDKATLSVDIAKNSAYLQMNSLRAEDTAVYYCSSWSAKRGDFWGQGTLVTVSS
VL: DIVLTQSPATLSLSPGERATLSCRASESISNNLHWYQQKPGQAPRLLIYYASQSISGIPARFSGSGPGTDFTLTISSLEPEDFAVYYCQQSNSWPLTFGGGTKLEIKR
modifications: Variable region heavy chain humanised variant 6 (VH6); Variable region light chain humanised variant 3 (VL3)
On to B2, for which the “binding affinity for huMK compared with murine IP14 precursor antibody” value in experiment [1] is reported as “better binding affinity”. Further, the “inhibition of UMR-106 cell migration compared with murine IP14 precursor antibody” value with human midkine protein is listed as “more effective; also recorded: greater efficacy”. In the experiment with murine MK (muMK), the “binding affinity for muMK compared with murine IP14 precursor antibody and chimeric antibody” value is recorded as “better binding affinity”.

B3: IP14-H6L8: humanised IP14 antibody: VH SEQ ID NO: 7, VL SEQ ID NO: 17 (antibody, V domains shown)
VH: QVQLVQSGGGLVKPGHSLRLSCAASGQSFSSYWMNWVRQAPGKGLEWIGMIHPSDSETILNQKFKDKATLSVDIAKNSAYLQMNSLRAEDTAVYYCSSWSAKRGDFWGQGTLVTVSS
VL: DIVLTQSPATLSLSPGERATLSCRASESISNNLHWYQQKPHQAPRLLIYYASQSISGVPARFSGSGSGTDFTLTISSVEPEDFAVYYCQQSNSWPLTFGQGTKVEIKR
modifications: Variable region heavy chain humanised variant 6 (VH6); Variable region light chain humanised variant 8 (VL8)
For B3, in experiment [1], the “binding affinity for huMK compared with murine IP14 precursor antibody” value was “better binding affinity”. For the same molecule, the “inhibition of UMR-106 cell migration compared with murine IP14 precursor antibody” value with human midkine protein was “more effective; also recorded: greater efficacy”. Also, the “binding affinity for muMK compared with murine IP14 precursor antibody and chimeric antibody” value in the experiment with murine MK (muMK) is listed as “better binding affinity”.
